Positions count from the first letter of the chain named. Names and notes keep the numbering of the source. Each block holds one molecule with its values, some of them ahead of it.
Key:
G protein βγ subunits = experiment: GST-fusion protein pull-down of G protein βγ subunits, with or without CaM; type: binding, bovine; conditions: 2 pmol GST-fusion protein, 2 pmol Gβγ, CaM pre-incubated 30 minutes, 20 mM Tris-HCl, 70 mM NaCl, 0.1 mM CaCl2, pH 7.5; 4 or 5 experiments
Description: (§1) GST-fusion proteins were expressed in E. coli BL21 strain cells, and purified by affinity chromatography using immobilized glutathione sepharose 4B beads. Proteins were eluted by reduced glutathione in 50 mM Tris-HCl buffer (pH 8.0), and then concentrated with Centricon filters with 3 kDa MW cut-off. The eluted proteins were either used immediately or stored at −80°C for future use. For GST-fusion protein pull-down assays, fusion proteins were incubated with either cell lysates or purified protein(s) at 4°C for 3 hours, following which glutathione-sepharose 4B beads were added and incubation continued at 4°C for 1 hour. The beads were then recovered by brief centrifugation, followed by 4 washes with the corresponding incubation buffer. The fusion proteins and the proteins to which they were bound were then separated by SDS-PAGE, and identified by staining with Coomassie blue or by immunoblot.
Figure 7 Effect of CaM on G protein βγ subunit interaction with wild ATi3 or ATct. A. Interaction of G protein βγ subunits and ATi3 or ATct. 50 pmol of GST-ATi3(213–242) or GST-ATct(297–359) were incubated with different amounts of G protein Gβγ subunits in a buffer containing 20 mM Tris-HCl and 70 mM NaCl (pH 7.5). Interactions were assessed by GST-fusion protein pull-down assay, and blots were probed with a specific antibody against Gβ subunits (upper panel). 1 pmol of Gβγ subunit was interacted with different amounts of GST-ATi3(213–242) and GST-ATct(297–359). Interaction was assessed by immunoblot against Gβ subunits (lower panel). B. CaM inhibits the interaction between G protein Gβγ subunits and ATi3 or ATct. 2 pmol of GST-ATi3(213–242) or GST-ATct(297–359) were incubated with different concentrations of pure bovine brain CaM for 30 minutes in a buffer (20 mM Tris-HCl and 70 mM NaCl with 0.1 mM CaCl2, pH 7.5) following which 2 pmol of Gβγ subunits were added and incubated for 1 hour. GST-fusion proteins and their interacting proteins were pulled down by gluthathione-sepharose 4B beads, and subjected to immunoblot. Blots were probed with a specific antibody against Gβ subunits. The summary graph represents means ± S.E. from four independent experiments. C. Effects of CaM on the interactions between G protein βγ subunits and mutated ATi3 and ATct. The method is same as the described in the Figure 7B, except that we used mutated GST-fusion proteins, GST-ATi3(213–242)W219A, ATct(297–359)F309A, and ATct(297–359)F313A. The summary graph represents mean ± S.E. from 4 or 5 independent experiments.

[1] = tested on: purified bovine brain CaM; experiment: GST-fusion protein pull-down with purified bovine brain CaM; type: binding; conditions: 50 pmol GST-fusion protein, 50 pmol purified bovine CaM, 100 mM Tris-HCl pH 7.5; Ca2+ dependent (0.1 mM CaCl2 vs 1 mM EGTA); repeated five times
Description: as §1
(§2) Figure 1 Interactions of the i3 loop and carboxyl tail of the AT1A receptor with CaM. A, Construction of GST-fusion proteins. Upper panel illustrates a schematic structure of the AT1A receptor and constructs of GST-fusion proteins of the i3 loop and carboxyl tail of the receptor. The numbers represent positions of amino acids in the receptor. […]

CaM in rat brain lysates = experiment: GST-fusion protein pull-down from rat brain lysates; type: binding; conditions: 50 pmol GST-fusion protein, 500 µg rat brain lysates, 20 mM Tris-HCl, 70 mM NaCl, pH 7.5; Ca2+ dependent; repeated five times
Description: as §1, §2

- Gβγ binding to GST-fusion protein in the presence of 2 pmol of CaM (G protein βγ subunits): 73%
- Gβγ binding to GST-fusion protein in the presence of 10 pmol of CaM (G protein βγ subunits): 34%
B1: GST-ATct(297–359): GST fused to the carboxyl terminal tail (amino acids 297 to 359) of the AT1A receptor (protein, UniProt P25095 297-359, looked up, fragment)
chain: LNPLFYGFLGKKFKKYFLQLLKYIPPKAKSHSSLSTKMSTLSYRPSDNMSSSAKKPASCFEVE
modifications: carboxyl tail GST fusion
notes: GST fused to the carboxyl terminal tail (amino acids 297 to 359) of the AT1A receptor
- interaction with purified CaM (pull-down, in words) [1]: associated
- association with CaM from rat brain lysates (pull-down, in words) (CaM in rat brain lysates): associated

- Gβγ binding to GST-fusion protein in the presence of 2 pmol of CaM (G protein βγ subunits): 99%
- Gβγ binding to GST-fusion protein in the presence of 10 pmol of CaM (G protein βγ subunits): 83%
B2: GSTATct(F313A): F313A mutant of GST-ATct(297–359) (protein, UniProt P30556 297-359, looked up, fragment F313A)
chain: B1 chain with K15R, F17A, S33N, M49V, A53T, S58P
modifications: GST fusion

From article PMC3673938, “Two Distinct Calmodulin Binding Sites in the Third Intracellular Loop and Carboxyl Tail of Angiotensin II (AT1A) Receptor” (PLoS ONE, 2013)
